Laboratory results published in patent US20220144922A1 (Adimab, published 2022).

Columns and labels:
[1] = molecular target: RSV F protein of subtype B strain 18537, on virus (respiratory syncytial virus subtype B …, UniProt P13843 26-574); assay: cell-based or functional assay
[2] = molecular target: RSV F protein of subtype A strain A2, on virus (respiratory syncytial virus subtype A …, UniProt P03420 26-574); assay: cell-based or functional assay
[3] = molecular target: T1, prefusion-stabilized RSV F ectodomain (DS-Cav1), subtype B (respiratory syncytial virus subtype B); assay: BLI, IgG on sensor
T1 construct: extracellular domain; also called Prefusion subtype B
Method: IgG binding to DS-Cav1 and FA FP was determined by BLI measurements using a FortéBio Octet HTX instrument (Pall Life Sciences). […] Data was analyzed using the ForteBio Data Analysis Software 7. The data was fit to a 1:1 binding model to calculate an association and dissociation rate, and KD was calculated using the ratio kd/kₐ.

Binder | Neut IC50 (ug/ml) subtype B [1] [µg/mL] | Neut IC50 (ug/ml) subtype A [2] [µg/mL] | Kd [3] [nM]
ADI-15656 (antibody, V domains shown, IgG; also called Antibody Number 220) VH: QVQLVQSGAEVKKPGASVKVSCKASGYTFTDYYMHWVRQAPGQGLEWVGWINPNSGSTNYAQKFQGRVTVTRDTSISTAYMDLSRLRSDDTAVYYCASRSWDHDAFDIWGQGTMVTVSS VL: QSVLTQPPSVSGAPGQRVTISCTGSSSNIGAGYDVHWYQQLPGRAPKLLIFGNSNRPSGVPDRFSGSKSGTSASLAITGLQPEDEADYYCHCYDSRLSVVFGGGTKLTVL | 0.021 | > 10 | 6.13
ADI-15655 (antibody, V domains shown, IgG) VH: EVQLVESGGGVVQPGRSLRLSCAASGFTFSSYAMHWVRQAPGKGLEWVAVISYDEGNEYYADSVKGRFTISRANSKNTIYLQMNSLRAEDTAVYYCARDYIHGDYGLDVWGLGTTVTVSS VL: not shown | > 10 | > 10 | 8.58
ADI-15568 (antibody, V domains shown, IgG) VH: QVQLVESGAEVQKPGASVKISCKASGYKFISYSIHWVRQAPGQGLEWMGVINPGGGLTNYAQKFQDRLTMTRDTSTATVTMELRSLRSDDRAVYFCGREDSYCSGDSCFNSGSGRWVDSWGQGTLVTVSS VL: DIQVTQSPSSLSASVGDRVTITCRASQSVITYLNWYQQKPGKAPQLLVYAASILQSGVPSSFSGSGSGTDFTLTISSLQPEDFATYYCQQTYSTPHTFGQGTKVDIK | 0.033 | 0.016 | 0.699
ADI-15566 (antibody, V domains shown, IgG) VH: QVQLVQSGAEVKKPGASVKVSCKASGFTFTNYGISWVRQAPGRGLEWMGWISAYNGNTEYAQKLQDRLTMTTDTSTNTAYMELRSLRSDDTALYYCARESGVAAAATLLYWGQGTLVTVSS VL: ETTLTQSPLSLPVTLGQPASISCRSSQSLVYSDGNTYLSWFQQRPGQSPRRLIYKVSNRDSGVPDRFSGSGSGADFTLKISRVEAEDVGVYYCMQGIYWPRTFGQGTKVDIK | 0.043 | 0.01 | 0.264
ADI-15587 (antibody, V domains shown, IgG) VH: EVQLVESGGGVVRPGGSLRLSCAASGFKFDDYGMSWVRQAPGKGLEWVSAIIWNSGSTGYADSVKGRFIISRDNAKNSLYLQMNSLRAEDTALYYCARVGGITKWWYYGMDLWGQGTTVTVSS VL: ETTLTQSPSFLSASVGDRVTITCRASQGLSNYLAWYQQKPGRAPKLLIYAASTLQSGVPSRFRGSGSGTEFTLTISSLQPEDLATYYCQHLNSYPLTFGGGTKVEIK | 0.13 | > 10 | 2.42
ADI-15565 (antibody, V domains shown, IgG) VH: QVQLVQSGAEVKKPGASVKVSCKASGYTFTNDINWVRQATGQGLEWMGWMNPNNGHTGYAQSFEGRVSMTRNSAINTAYLELSSLRFDDTAIYYCVYNFWSDSSVSWGQGTLVTVSS VL: QSVVTQPPSVSGAPGQSVAISCTGSSSNIGPGYDVHWYQQLPGAAPKLLIYGDSNRPSGVPDRFSTSKSGTSVSLAITGLQAEDEADYYCQSYDSSLRGYVFGTGTKLTVL | 6.25 | 21.3 | 6.76
ADI-15575 (antibody, V domains shown, IgG) VH: QVQLVQSGAEVKKPGASLMVSCSASGYIFNSDINWVRQAPGQGLEWMGWMNPKNGHTGYAQEFEGRVSMTRNSSKTIAYLQLSSLTYEDTAVYYCVYDFWSDDSVKWGRGTLVTVSS VL: QSVVTQPPSVSGAPGQSVAISCSGSSSNIGPGYDVHWYQQLPGSAPKLLIYGDNNRPSGVPERFSTSKSGTSASLAITGLQAEDEADYYCQSFDSSLRGYVFGTGTKVTVL | 1.47 | > 10 | 4.16
ADI-15571 (antibody, V domains shown, IgG) VH: QVQLVQSGAEVKKPGASVKVSCKASGYSFTDYYIHWVRQAPGQGLEWIGWINPNSGGTTFAQNFQGRVTMTRDTSISTAFLELSRLKSDDTAVYYCARDVLWLNGFWGLGTLVTVSS VL: QSVVTQPPSVSAAPGQKVTISCSGSSSNIGNNYVSWYQQFRGTAPKVLIYENNKRTSGIPDRFSGSKSGTSATLGITGLQTGDEADYYCGTWDSSLSTGPYVVFGGGTKLTVL | 0.43 | 0.541 | 25.7
ADI-15586 (antibody, V domains shown, IgG; also called Antibody Number 153) VH: EVQLVESGGGVVQPGKSLRLSCAASGFIFSGYGMHWVRQAPGKGLEWVAFIWFDGSSTYYADSVKGRFTISKDDSKQTVYLQMNRLRAEDTAVYYCARDPLFLYNYNDEPFDYWGQGTLVTVSS VL: SYELTQPPSASGSPGQSVTISCSGSSSNIGGNFVYWYQQLPGTAPKVLIYRNNQRPSGVPDRFSGSKSGTSASLAISGLRSDDEADYYCSVWDDSLNGRLFGGGTKLTVL | 1.02 | > 10 | 5.78
ADI-15594 (antibody, V domains shown, IgG) VH: EVQLVESGGHLVQPGGSLRLSCAASGFTFSSYSMNWVRQAPGKGLEWISYISSSSSTMYYADSVKGRFTMSRDNAKNSLYLQMNSLRDEDTALYYCARDFPPINLAATTRNYYYYVMDVWGQGTTVTVSS VL: DIQLTQSPSSLSASVGDRVTITCRASQSISSYLNWYQQKPGKAPNLLIYATSNLKSGVPSRFSGSGSGTDFTLTISSLQPEDFATYYCQQSYSTSYTFGQGTKVDIK | 3.28 | 3.25 | 0.549
ADI-15649 (antibody, V domains shown, IgG) VH: EVQLVESGGGLVKPGGSLRLSCAAPGFTIRSYTMYWVRQAPGKGLEWVASISSSSSYIHYGDSVKGRFTIARDNAKNSLYLQMNSLRAEDTAVYYCVRDHCTGGSCYLNGMDVWGQGTTVTVSS VL: QPVLTQPPSVSGAPGQRVTISCTGTSSNIGAGYDVHWYQQLPGTAPKLLIYGNNNRPSGVPDRFSGSKSGTSASLAITGLQAEDEADYYCQSYDSSLSGSVFGGGTKLTVL | 2.19 | > 10 | 0.329
ADI-15591 (antibody, V domains shown, IgG) VH: EVQLLESGGGLVKPGGSLRLSCAASGFTFSSYGMHWVRQAPGKGLEWVSSITAGSSYMDYADSVKGRFTVSRDNGKNSLYLQMNSLRAEDTAVYFCAREDYDSRVYYLKWFDPWGQGTLVTVSS VL: QSVLTQPPSVSGAPGQRVTISCTGSSSNIGTGYDVHWYQQLPGSAPKLLIYGNSNRPSGVPDRFSGSKSGTSASLAITGLQAEDEADYYCQSYDSSRSGYVFGTGTKLTVL | 0.219 | 0.086 | 0.304
ADI-15569 (antibody, V domains shown, IgG) VH: EVQLVESGAEVKKPGASVKVSCKASGYTFANYGITWVRQAPGQGLEYMGWISAYNGNTNYAQKFQGRVTMTTDTSTSTAYMELRSLRSDDTAIYYCARDPGVTAAVLLDYWGQGALVTVSS VL: DIVLTQSPLSLPVTLGQPASISCRSSQSLVFSDGNTYLSWFQQRPGQSPRRLLYKVSNRDSGVPDRFSGSGSGTDFTLTISRVEAEDVGVYYCLQGTPPYTFGQGTKVDIK | 0.035 | 0.006 | 0.25
ADI-15563 (antibody, V domains shown, IgG) VH: EVQLVESGGGLVQPGRSLRLSCAASGFTFDDYAMHWVRQAPGKGLEWVSGISWNSGIVKYADSVKGRFTISRDNAKNSLYLQMNSLRTEDTALYYCVKDGYTSSWHSDYHYGLDVWGQGTTVTVSS VL: DIVMTQSPATLSLSPGDRATLSCRASQNVISNLAWYQQKPGQAPRLLIYTVSTRATGIPARFSGSGSGTDFTLTISSLQSEDFAVYYCQQYNNWPLTFGGGTKVEIK | 0.047 | 0.014 | 2.2
ADI-15564 (antibody, V domains shown, IgG) VH: QVQLVQSGAEVKKPGSSVKVSCKASGDTFNSYSISWVRQAPGQGLEWMGGILPMFGSSDYAQKFQGRLTITADESTRTAYMELNSLTSEDTAIYYCARDNYYVWTGRYPEFDFWGQGTLVTVSS VL: EIVLTQSPGTLSLSPGDEATLSCRASQSVTSNYLAWYQQRPGQAPRLLISGASRRATAVPDRFSGSGSGTDFTLTISRLEPEDFAVYYCQQYGSTPITFGQGTRLEIK | 0.016 | 0.011 | 0.64
ADI-15592 (antibody, V domains shown, IgG; also called Antibody Number 159) VH: EVQLVESGGALVKPGGSLRLSCVGTGLTFTTAYMSWARQAPGKGLEWVGRIKSKSDGGTTEYPTPVKGRFTISRDESKNTLYLQMNSLKIEDTAVYYCTTDRGITARPIFDSWGQGTLVTVSS VL: QSVLTQPPSVSGALGRRVTISCTGSSSNIGAGYDVHWYRQLPGTAPKLLIYGNTKRPSGVPDRFSGSKYATSASLAITGLQAEDDADYYCQSYDGGLSGYVFGTGTQLTVL | 20.9 | 12.3 | 48.2
ADI-15596 (antibody, V domains shown, IgG) VH: EVQLVESGGALVKPGGSLRLSCVGTGLTFTTAYMSWARQAPGKGLEWVGRILSKSDGGTTDYPTPVKGRFTISRDESKNTLYLQMNSLKIEDTAVYYCTTDRGITARPIFDSWGQGTLVTVSS VL: QSVLTQPPSVSGALGRRVTISCTGSSSNIGAGYDVHWYRQLPGTAPKLLIYGNTKRPSGVPDRFSGSKYATSASLAITGLQADDDADYYCQSYDGGLSGYVFGTGTKVTVL | > 10 | 4.48 | 47.5
